The record followed here is publication PMC10679814, “Yeast lunapark regulates the formation of trans-Sey1p complexes for homotypic ER membrane fusion” (iScience, 2023).

For orientation: stoichiometry N means the number of molecules, sites or subunits per partner or assembly.

The target of test [1] is Sey1p-ΔTM (S. cerevisiae). As to the kind of experiment: SEC; Superdex 200 (10/300), 20 mM HEPES-NaOH pH 7.4, 150 mM NaCl; Sey1p-ΔTM incubated at 30°C for 1 h with GMP-PNP, without or with the Lnp1p peptide. For orientation: SEC sorts molecules by how far they enter the pores of the column.
The target of test [2] is T1, His6-tagged Sey1p-(1-675), the N-terminal cytoplasmic region of Sey1p (S. cerevisiae, UniProt Q99287 1-675).
T1 construct: in pET28a; source: E. coli Rosetta-2 DE3, purified (Ni-NTA)
T1 sequence (looked up): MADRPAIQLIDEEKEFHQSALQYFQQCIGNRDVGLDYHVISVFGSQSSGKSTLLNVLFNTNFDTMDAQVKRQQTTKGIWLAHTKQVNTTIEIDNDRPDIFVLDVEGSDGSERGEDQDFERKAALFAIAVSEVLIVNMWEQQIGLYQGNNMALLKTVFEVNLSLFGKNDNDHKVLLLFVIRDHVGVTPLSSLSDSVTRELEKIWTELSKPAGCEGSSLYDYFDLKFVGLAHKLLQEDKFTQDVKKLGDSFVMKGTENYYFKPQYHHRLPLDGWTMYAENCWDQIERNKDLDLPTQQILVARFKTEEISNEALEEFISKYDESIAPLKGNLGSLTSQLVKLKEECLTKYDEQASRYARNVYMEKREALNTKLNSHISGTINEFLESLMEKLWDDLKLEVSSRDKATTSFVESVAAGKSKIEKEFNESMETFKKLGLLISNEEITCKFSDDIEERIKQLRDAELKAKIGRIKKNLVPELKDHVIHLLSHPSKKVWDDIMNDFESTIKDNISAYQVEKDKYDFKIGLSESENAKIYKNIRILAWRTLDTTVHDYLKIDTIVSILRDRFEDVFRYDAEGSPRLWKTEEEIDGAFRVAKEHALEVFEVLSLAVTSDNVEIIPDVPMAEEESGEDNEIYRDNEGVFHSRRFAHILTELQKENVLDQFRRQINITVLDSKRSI
Kind of test: pull-down; 40 μg his6-tagged protein with 20 μM Lnp1p peptide in RB150 buffer, 0.4% Triton X-100, 20 mM imidazole, 4°C 2 h; Ni-NTA agarose 30 min; SDS-PAGE, Coomassie. As to conditions: both partners purified.

The target of test [3] is T2, His6-tagged Sey1p-(1-283) (S. cerevisiae, UniProt Q99287 1-283).
T2 construct: Sey1p, S. cerevisiae, amino acids 1-283 (GTPase domain); in pET28a; also called GTPase domain of Sey1p; source: E. coli Rosetta-2 DE3, purified (Ni-NTA)
T2 sequence (looked up): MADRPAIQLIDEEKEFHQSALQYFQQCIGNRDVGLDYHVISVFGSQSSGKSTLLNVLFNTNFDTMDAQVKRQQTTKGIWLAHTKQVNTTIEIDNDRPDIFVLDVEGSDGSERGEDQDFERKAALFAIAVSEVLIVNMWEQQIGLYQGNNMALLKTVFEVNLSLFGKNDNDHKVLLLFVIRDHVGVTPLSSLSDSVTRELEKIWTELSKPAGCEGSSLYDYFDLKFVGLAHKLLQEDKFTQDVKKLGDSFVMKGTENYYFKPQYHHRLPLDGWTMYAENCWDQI
The test is described as above. As to conditions: both partners purified.

Sey1p-ΔTM (domain or fragment) yielded a stoichiometry N in test [1] of 2.

B1: Lnp1p peptide, a synthetic peptide with the N-terminal region (amino acids 1-52) of Lnp1p (peptide, UniProt P38878 1-52, looked up)
peptide: MFSALGKWVRGSRNDKDFVTKYTADLSQITSQIHQLDVALKKSQSILSQWQS
notes: Lnp1p (yeast lunapark), S. cerevisiae, amino acids 1-52; also called LNP1 peptide; source: synthetic peptide (custom, Anygen)
For the molecule B1, the binding result in test [2] and in test [3] was “binds” throughout.
